{"source": "patent US20240287172A1", "about": "(SCIRHOM, published 2024)", "binders": {"B1": {"name": "antibody 43 (antibody, V domains shown)", "VH": "QVALKESGPGILQPSQTLSLTCSFSGFSLSTFGMGVGWIRQSSGKGLEWLANIWWDDDKYYNPALKSRLTISKDASKNQAFLKIANVDTADTATYYCARIGNYGSNYWYFDVWGTGTTVTVSS", "VL": "QIVLTQSPAIMSASPGERVTMTCSANSRISYMYWYQQKPGSSPRLLIYDTSNLASGVPVRFSGSGSGTSYSLTISRMEAEDAATYNCQQWSSYPLTFGAGTKLELK", "notes": "mouse IgG, kappa light chain; also called clone #43; purified antibody 43"}, "B2": {"name": "antibody 48 (antibody, V domains shown)", "VH": "QVQLQQSGTELVRPGTSVKVSCKASGYAFTNYLIEWVKQRPGQGLEWIGVINPGSGFTKYNEKFKGKATLTADKSSSTVYMHLSSLTSEDSAVYFCARGLYRAMDYWGQGTSVTVSS", "VL": "DIQMTQSPASQSASLGESVTITCLASQTIATWLAWYQQKPGKSPQLLIYGATTLADGVPSRFSGGGSGTKFSFKISSLQAEDFVSYYCQQLYSTPYTFGGGTKLEIK", "notes": "mouse IgG, kappa light chain; also called clone #48; purified antibody 48"}, "B3": {"name": "antibody 50 (antibody, V domains shown)", "VH": "B2 VH with T9A, T16A, T30S, V79A, H82Q", "VL": "B2 VL with A30G, G50A, T52A, T53S, S85N, L91I", "notes": "mouse IgG, kappa light chain; also called clone #50; purified antibody 50"}}, "note": "Substitutions are numbered along the chain they refer to."}
{"target": "T1, hiR2-FL-H620R-T7 (human, UniProt Q6PJF5 1-856)", "T1 sequence": "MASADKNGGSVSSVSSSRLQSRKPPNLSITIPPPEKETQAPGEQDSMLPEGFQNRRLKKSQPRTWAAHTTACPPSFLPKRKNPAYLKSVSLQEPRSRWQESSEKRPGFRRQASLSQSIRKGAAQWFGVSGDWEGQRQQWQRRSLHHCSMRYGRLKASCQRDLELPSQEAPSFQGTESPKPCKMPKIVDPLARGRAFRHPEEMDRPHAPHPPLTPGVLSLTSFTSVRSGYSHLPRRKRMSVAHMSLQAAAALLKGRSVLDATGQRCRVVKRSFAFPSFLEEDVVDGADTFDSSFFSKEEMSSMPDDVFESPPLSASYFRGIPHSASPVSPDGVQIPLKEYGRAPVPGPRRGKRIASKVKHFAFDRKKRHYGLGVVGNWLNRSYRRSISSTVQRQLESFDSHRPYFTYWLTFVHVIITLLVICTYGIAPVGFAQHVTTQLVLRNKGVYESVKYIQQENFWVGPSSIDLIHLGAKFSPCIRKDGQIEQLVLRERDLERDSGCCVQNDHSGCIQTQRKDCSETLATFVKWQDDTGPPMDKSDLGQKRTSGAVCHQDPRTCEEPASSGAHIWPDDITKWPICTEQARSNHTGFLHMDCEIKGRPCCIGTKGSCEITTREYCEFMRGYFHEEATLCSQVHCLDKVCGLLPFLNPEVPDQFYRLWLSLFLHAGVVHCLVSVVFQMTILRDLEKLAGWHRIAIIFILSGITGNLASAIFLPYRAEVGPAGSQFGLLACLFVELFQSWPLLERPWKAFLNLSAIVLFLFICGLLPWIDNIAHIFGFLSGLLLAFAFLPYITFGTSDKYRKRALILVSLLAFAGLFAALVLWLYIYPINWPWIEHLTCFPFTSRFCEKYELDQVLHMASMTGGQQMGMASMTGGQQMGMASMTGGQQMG", "test": "FACS, MEF-DKO cells, 3 µg/ml", "description": "In brief, immortalized MEF-DKO hiR2-FL-G563D-T7, MEF-DKO hiR2-FL-A564P-T7, MEF-DKO hiR2-FL-1566E-T7, MEF-DKO hiR2-FL-D569E-T7, MEF-DKO hiR2-FL-E579K-T7, MEF-DKO hiR2-FL-Q580N-T7, MEF-DKO hiR2-FL-A581S-T7, MEF-DKO hiR2-FL-R582A-T7, MEF-DKO hiR2-FL-S583G-T7, MEF-DKO hiR2-FL-G587N-T7, MEF-DKO hiR2-FL-F588H-T7, MEF-DKO hiR2-FL-L589P-T7, MEF-DKO hiR2-FL-E594V-T7, MEF-DKO hiR2-FL-K596T-T7, MEF-DKO hiR2-FL-S607R-T7, MEF-DKO hiR2-FL-T612S-T7, MEF-DKO hiR2-FL-E617D-T7, MEF-DKO hiR2-FL-H620R-T7, MEF-DKO hiR2-FL-L636M-T7, MEF-DKO hiR2-FL-K638D-T7, MEF-DKO hiR2-FL-1771F-T7, MEF-DKO hiR2-FL-1825V-T7, MEF-DKO hiR2-FL-1828V-T7, MEF-DKO hiR2-FL-N829R-T7, MEF-DKO hiR2-FL-W830C-T7, MEF-DKO hiR2-FL-P831E-T7, MEF-DKO hiR2-FL-I833C-T7, MEF-DKO hiR2-FL-H835F-T7, MEF-DKO hiR2-FL-F8391-T7, MEF-DKO hiR2-FL-S843D-T7, MEF-DKO hiR2-FL-Q853A-T7, MEF-DKO hiR2-FL-V854Q-T7 and MEF-DKO hiR2-FL-R844K-T7 cells were harvested with 10 mM EDTA in PBS, washed and resuspended in FACS buffer (PBS, 3% FBS, 0.05% sodium azide), and seeded in Nunc U-bottom 96-well plates (Thermo Fisher Scientific, USA) at approximately 1×10⁵ cells per well. To pellet cells and remove supernatants, the plates were centrifuged at 1,500 rpm and 4° C. for 3 minutes. For primary staining, cells were resuspended in 100 μl per well of either FACS buffer alone (controls) or the purified antibodies 3, 5, 16, 22, 34, 42, 43, 44, 48, and 50 of the invention at 3 μg/ml in FACS buffer and incubated on ice for 1 hour. Afterwards, plates were centrifuged at 1,500 rpm and 4° C. for 3 minutes and washed twice with 200 μl per well of FACS buffer. For secondary staining, cells were spun down and resuspended in 100 μl per well of PE-conjugated goat anti-mouse IgG F(ab′)2 detection fragment (Dianova, Germany) diluted 1:100 in FACS buffer. Protected from light, the cell suspensions were incubated on ice for 1 hour. Plates were then centrifuged at 1,500 rpm and 4° C. for 3 minutes and washed three times with 200 μl per well of FACS buffer. Finally, cells were resuspended in 150 μl per well of FACS buffer and analyzed using a BD Accuri™ C6 Plus flow cytometer (Becton Dickinson, Germany).", "units": {"loss of binding vs wild type": "%"}}
{"binder": "B1", "loss of binding vs wild type": "≥ 30"}
{"binder": "B2", "loss of binding vs wild type": "≥ 30"}
{"binder": "B3", "loss of binding vs wild type": "≥ 30"}
